Data reported in article PMC12299175 (2025).

Target: synthetic peptide of stem helix (1141-1161) of SARS-CoV-2 WT S with biotin at C terminus (SARS-CoV-2, UniProt P0DTC2 1141-1161, biotin at C terminus)
Assay: BLI

B1: S2P6 recombinant mAb with human IgG1 constant region (antibody, V domains shown)
VH: EVQLVQSGAEVKKPGASVKVSCKASGYTFTSQYMHWVRQAPGQGLEWIGIINPSGVHTSYAQKFQGRVTLTRDTSTSTLYMELSSLRSEDTAVYYCARGSPKGAFDYWGQGTLVTVSS
VL: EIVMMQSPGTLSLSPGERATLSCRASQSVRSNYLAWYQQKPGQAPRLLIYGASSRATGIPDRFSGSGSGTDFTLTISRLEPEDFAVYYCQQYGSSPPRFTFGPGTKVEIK
koff: < 1e-06 s⁻¹
